From the supplement of paper PMC7877785
± gives the uncertainty stated by the source.

Test: self-splicing fitness, log relative to wild type (ln ratio); higher = more splicing; Tetrahymena group I intron in knt gene, E. coli kanamycin selection, DiMSum; sequences stand for … in CUCUCU…GGAGGGAAAAGUUAUCAGGCAUGCACCUGGUAGCUAGUCUUUAAACCAAUAGAUUGCAUCGGUUUAAAAGGCAAGACCGUCAAAUUGCGGGAAAGGGGUCAACAGCCGUUCAGUACCAAGUCUCAGGGGAAACUUUGAGAUGGCCUUGCAAAGGGUAUGGUAAUAAGCUGACGGACAUGGUCCUAACCACGCAGCCAAGUCCUAAGUCAACAGAUCUUCUGUUGAUAUGGAUGCAGUUCACAGACUAAAUGUCGGUCGGGGAAGAUGUAUUCUUCUCAUAAGAUAUAGUCGGACCUCUCCUUAAUGGGAGCUAGCGGAUGAAGUGAUGCAACACUGGAGCCGCUGGGAACUAAUUUGUAUGCGAAAGUAUAUUGAUUAGUUUUGGAGUACUCGUGGUCG
Summary of the method: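 Six replicate transformations of E. coli BL21(DE3) with a pET-22b(+) library were grown overnight at 37°C or 30°C. The library randomised all eight P1ex-region intron nucleotides, the intron lying in the knt kanamycin-resistance gene, and plates were LB agar with or without 25 μg/mL kanamycin plus 100 μg/mL carbenicillin, 50 μM IPTG and 0.2% rhamnose. Pooled colonies were amplicon-sequenced on an Illumina HiSeq 2500, and fitness is the DiMSum error-weighted combination of wild-type-normalised replicate fold changes, kanamycin versus none.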

Row | Sequence | self-splicing fitness (ln) (30 °C) | self-splicing fitness (ln) (37 °C)
1 | ACCAAGCAAUAUUACGAAUA | -2.69 ± 0.2 | -2.1 ± 0.16
2 | ACCAAGCAAUAUUACGACCA | -1.03 ± 0.081 | -1.02 ± 0.1
3 | ACCAAGCAAUAUUACGACGU | -0.00288 ± 0.056 | 0.552 ± 0.063
4 | ACCAAGCAAUAUUACGAGAG | -3.53 ± 0.2 | -2.3 ± 0.17
5 | ACCAAGCAAUAUUACGAUAA | -3.07 ± 0.18 | -1.46 ± 0.16
6 | ACCAAGCAAUAUUACGAUCA | -1.55 ± 0.086 | -1.22 ± 0.075
7 | ACCAAGCAAUAUUACGAUCU | -1.29 ± 0.064 | 0.0583 ± 0.076
8 | ACCAAGCAAUAUUACGAUUC | -1.48 ± 0.1 | -1.04 ± 0.14
9 | ACCAAGCAAUAUUACGCACG | -1.92 ± 0.1 | -0.625 ± 0.13
10 | ACCAAGCAAUAUUACGCCCG | -1.42 ± 0.14 | 0.129 ± 0.15
11 | ACCAAGCAAUAUUACGCUGA | -1.73 ± 0.1 | -1.13 ± 0.11
12 | ACCAAGCAAUAUUACGCUGC | -1.62 ± 0.063 | -0.906 ± 0.076
13 | ACCAAGCAAUAUUACGGAAU | -3.05 ± 0.11 | -1.15 ± 0.096
14 | ACCAAGCAAUAUUACGGACU | -0.029 ± 0.046 | 0.262 ± 0.062
15 | ACCAAGCAAUAUUACGGAUU | -2.62 ± 0.081 | -1.06 ± 0.081
16 | ACCAAGCAAUAUUACGGGAU | -2.53 ± 0.088 | -1.39 ± 0.083
17 | ACCAAGCAAUAUUACGGUGA | -1.68 ± 0.1 | -1.29 ± 0.083
18 | ACCAAGCAAUAUUACGUCUC | -2.73 ± 0.094 | -2.28 ± 0.12
19 | ACCAAGCAAUAUUACGUGGU | -3.41 ± 0.1 | -2.69 ± 0.13
20 | ACCAAGCAAUAUUACGUGUU | -3.99 ± 0.093 | -1.54 ± 0.075
21 | ACCCAGCAAUAUUACGAACU | -1.33 ± 0.11 | -0.29 ± 0.13
22 | ACCCAGCAAUAUUACGACCU | -0.748 ± 0.062 | -0.326 ± 0.074
23 | ACCCAGCAAUAUUACGAGAC | -2.34 ± 0.17 | -1.89 ± 0.18
24 | ACCCAGCAAUAUUACGAGCA | -0.745 ± 0.08 | -1.31 ± 0.088
25 | ACCCAGCAAUAUUACGAGGC | -2.72 ± 0.1 | -0.981 ± 0.089
26 | ACCCAGCAAUAUUACGAGGU | -3.8 ± 0.12 | -2.93 ± 0.14

Row | Sequence | self-splicing fitness (ln) (30 °C) | self-splicing fitness (ln) (37 °C)
27 | ACCCAGCAAUAUUACGAUAC | -2.94 ± 0.17 | -0.588 ± 0.13
28 | ACCCAGCAAUAUUACGAUUG | -4.36 ± 0.19 | -2.78 ± 0.16
29 | ACCCAGCAAUAUUACGCAAC | -2.62 ± 0.12 | -0.73 ± 0.11
30 | ACCCAGCAAUAUUACGCAAG | -2.81 ± 0.11 | -1.14 ± 0.11
31 | ACCCAGCAAUAUUACGCAUU | -0.546 ± 0.043 | 0.216 ± 0.061
32 | ACCCAGCAAUAUUACGCCGA | -1.26 ± 0.075 | -1.14 ± 0.082
33 | ACCCAGCAAUAUUACGCCGC | -3.12 ± 0.18 | -2.37 ± 0.2
34 | ACCCAGCAAUAUUACGCCUU | -0.51 ± 0.062 | 0.161 ± 0.081
35 | ACCCAGCAAUAUUACGCUAA | -1.67 ± 0.069 | -1.33 ± 0.068
36 | ACCCAGCAAUAUUACGGCCA | -1.17 ± 0.075 | -0.171 ± 0.09
37 | ACCCAGCAAUAUUACGGCGU | -2.08 ± 0.081 | -0.746 ± 0.084
38 | ACCCAGCAAUAUUACGGGUG | -2.14 ± 0.061 | -0.937 ± 0.058
39 | ACCCAGCAAUAUUACGGUGU | -2.69 ± 0.076 | -1.64 ± 0.11
40 | ACCCAGCAAUAUUACGUACU | -1.12 ± 0.059 | -0.926 ± 0.08
41 | ACCCAGCAAUAUUACGUAGA | -2.03 ± 0.1 | -1.39 ± 0.11
42 | ACCCAGCAAUAUUACGUCGA | -1.03 ± 0.078 | -0.528 ± 0.077
43 | ACCCAGCAAUAUUACGUCGC | -1.39 ± 0.069 | -0.784 ± 0.076
44 | ACCCAGCAAUAUUACGUCUA | -1.41 ± 0.093 | -0.988 ± 0.09
45 | ACCCAGCAAUAUUACGUUAA | -1.6 ± 0.078 | -0.769 ± 0.071
46 | ACCCAGCAAUAUUACGUUCU | -1.31 ± 0.062 | -1 ± 0.071
47 | ACCGAGCAAUAUUACGAAUC | -4.8 ± 0.42 | -2.61 ± 0.32
48 | ACCGAGCAAUAUUACGAGCG | -3.24 ± 0.21 | -0.734 ± 0.16
49 | ACCGAGCAAUAUUACGAGGG | -3.2 ± 0.17 | -3.06 ± 0.21
50 | ACCGAGCAAUAUUACGAUCA | -2.6 ± 0.24 | -0.928 ± 0.19
51 | ACCGAGCAAUAUUACGCACU | -1.62 ± 0.14 | -0.517 ± 0.13
52 | ACCGAGCAAUAUUACGCCUU | -2.75 ± 0.24 | -1.32 ± 0.19

Row | Sequence | self-splicing fitness (ln) (30 °C) | self-splicing fitness (ln) (37 °C)
53 | ACCGAGCAAUAUUACGCGUA | -2.38 ± 0.14 | -0.999 ± 0.12
54 | ACCGAGCAAUAUUACGGAAU | -3.65 ± 0.2 | -2.33 ± 0.25
55 | ACCGAGCAAUAUUACGGAGA | -1.34 ± 0.29 | -1.48 ± 0.28
56 | ACCGAGCAAUAUUACGUGAA | -4.46 ± 0.17 | -2.3 ± 0.14
57 | ACCGAGCAAUAUUACGUUGC | -3.29 ± 0.32 | -1.33 ± 0.25
58 | ACCUAGCAAUAUUACGAACG | -1.25 ± 0.12 | -1.07 ± 0.19
59 | ACCUAGCAAUAUUACGAAUU | -2.72 ± 0.13 | -0.574 ± 0.12
60 | ACCUAGCAAUAUUACGACGA | -0.405 ± 0.11 | -0.784 ± 0.093
61 | ACCUAGCAAUAUUACGCCAC | -2.11 ± 0.4 | –
62 | ACCUAGCAAUAUUACGCCUC | -1.88 ± 0.13 | -1.51 ± 0.15
63 | ACCUAGCAAUAUUACGGAAA | -1.79 ± 0.16 | -1.51 ± 0.12
64 | ACCUAGCAAUAUUACGGAAU | -1.96 ± 0.08 | -1.19 ± 0.09
65 | ACCUAGCAAUAUUACGGAGU | -3.61 ± 0.13 | -2.39 ± 0.12
66 | ACCUAGCAAUAUUACGGCCA | -1.33 ± 0.13 | -0.234 ± 0.12
67 | ACCUAGCAAUAUUACGGCGU | -0.278 ± 0.056 | 0.12 ± 0.07
68 | ACCUAGCAAUAUUACGGGGC | -3.06 ± 0.15 | -1.66 ± 0.15
69 | ACCUAGCAAUAUUACGGGUC | -4.05 ± 0.23 | -2.57 ± 0.23
70 | ACCUAGCAAUAUUACGGUAG | -3.45 ± 0.15 | -2.49 ± 0.18
71 | ACCUAGCAAUAUUACGGUCA | -1.74 ± 0.091 | -0.306 ± 0.082
72 | ACCUAGCAAUAUUACGGUCU | -1.69 ± 0.096 | -0.98 ± 0.11
73 | ACCUAGCAAUAUUACGUAAC | -2.22 ± 0.12 | -1.66 ± 0.18
74 | ACCUAGCAAUAUUACGUACU | -0.755 ± 0.052 | -0.159 ± 0.062
75 | ACCUAGCAAUAUUACGUCAA | -2.03 ± 0.2 | -1.78 ± 0.17
76 | ACCUAGCAAUAUUACGUGAU | -1.5 ± 0.057 | -0.344 ± 0.074
